Test results as given in publication PMC8665133.
Several values for one entry are separate records, joined by “and”; a condition that tells them apart may be missing. Identical values can stand only once. Like-named read-outs stand apart in the source and are kept apart here.

Experiments:
[1] = target: T1, Transmembrane domain peptide of AM2 (TM-AM2), wild type (influenza A virus (strain not stated)); assay: native MS
[2] = target: T1, Transmembrane domain peptide of AM2 …; assay: native MS; remark: listed apart in the source

B1: Transmembrane domain peptide of AM2 (TM-AM2), wild type (peptide)
chain: SDPLVVAASIIGILHLILWIL
modifications: not checked
- stoichiometry N [1]: 6
- stoichiometry N [2]: 2 and 4
